Test results: the nanobody polyreactivity screen of Harvey et al. (2022)

Test: yeast display, Sf9 membrane polyspecificity reagent, FACS + sequencing; frameworks hold sequencing errors
Outline: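 After 36–48 hours of galactose induction, yeast (Saccharomyces cerevisiae BJ5465) displaying a synthetic nanobody library were stained at 4 °C for 1 hour with 10% biotinylated, detergent-solubilized Sf9 membrane reagent. Streptavidin microbeads enriched the stained cells before FACS sorting into low and high (top ~1%) gates on anti-HA and streptavidin fluorescence. Each clone's polyreactivity label reflects its gate of origin.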

Row | Sequence | polyreactivity (PSR sort gate)
1 | QVQLVESGGGLVQAGGSLRLSCAASGSIFPFYAMGWYRQAPGKEREMLAANSDRGGSTYYADSVKGRFTISRDNAKNTVYLQMNSLKPEDTAVYYCNADRARFTYRATTYTGRYDYWGQGTQVTVSS | low polyreactivity
2 | QVQLVESGGGLVQAGGSLRLSCAASGSIFPGNAKGWYRQAPGKERELVASINWSGGSTYYADSVKGRVTISRDNAKNTVYVQMNSLKPEDTAGYYCNARAFRQGHVEYDYWGQGTQVTVSS | low polyreactivity
3 | QVQLVESGGGLVQAGGSLRLSCAASGSIFPGNALGWYRQAPGKERELVAVIDFSGASTYYADSVKGRFTISRDNAKNTVYLQMNRLKPEDTADYWGQGTQVTVSS | low polyreactivity
4 | QVQLVESGGGLVQAGGSLRLSCAASGSIFPGNAMGGYRQAPGKERELVAAIRGGGSTNYADSVKGRFTISRDTAKNTVYIQMNSLKPEDTAVYYCAAQGILGSYDYWGQGTQVTVSS | low polyreactivity
5 | QVQLVESGGGLVQAGGSLRLSCAASGSIFPGNAMGWYRPAPGKERELVAVIDFSGASTYYADSVKGRYTISRDNAKNTVYLQMNCLKPEVTADFWGQGTQVTVSS | low polyreactivity
6 | QVQLVESGGGLVQAGGSLRLSCAASGSIFPGYAMGWYRQAPGKERELVATITWSGGSTYYADSVKWRFTISRDNEKNTVYLQMNCLKPEDTAVYYCNADSNWYYQWNYYGLYDYWGQGTQVTVSS | low polyreactivity
7 | QVQLVESGGGLVQAGGSLRLSCAASGSIFPHNAMGWYRQAPGKERELVAAISVSRGSTYYADSVKGRFTISRDNAKNTVYLQMNSLKPEDTAVYYCAAYAYGGRINGYRTYRYNYWGQGTQVTVSS | high polyreactivity
8 | QVQLVESGGGLVQAGGSLRLSCAASGSIFPHYAMGWYRQAPGKEREFVATISGSTGRTYYADSVKGRFTISRDNAKNTVYLQMNSLKPEDTAVYYCATSVGYYLPPIKYDYWGQGTQVTVSS | low polyreactivity
9 | QVQLVESGGGLVQAGGSLRLSCAASGSIFPIYAMGWYRQAPGKERELVAAISGSGARTYYADSVKGRFTISRDNAKNTVYLQMNSLKPEDTAVYYCNAKYGYDSEARIVKPVRYDYWGQGTQVTVSS | high polyreactivity
10 | QVQLVESGGGLVQAGGSLRLSCAASGSIFPIYAMGWYRQAPGKERELVAGIRGRGGRTYYADSVKGRFTISRDNAKNTVYLQMNSLKPEDTAVYYCAKANLTPQGRGDYDYWGQGTQVTVSS | high polyreactivity
11 | QVQLVESGGGLVQAGGSLRLSCAASGSIFPLYAMGWYRQAPGKERELDASITWSAGNTHYADSVKGRFTISRDNAKNTVYLQMNSLKPEDTAVYYCAADDLWLYYVDDLPINDFDYWGQGTQVTVSS | low polyreactivity
12 | QVQLVESGGGLVQAGGSLRLSCAASGSIFPNNAMGWYRQAPGKERELVAAISSSARTYYADSVKGRFTISRDNAKNTVYLQMNSLKPEDTAVYYCAARWYGRFLMGYWGQGTQVTVSS | high polyreactivity
13 | QVQLVESGGGLVQAGGSLRLSCAASGSIFPNYAMGWYRQAPGKERELVAAISSSGGRTYYADSVKGRFTISRDNAKNTVYLQMNCLKPEDTAVYYCAADTYTSAQHEKYDYWGQGTQVTVSS | low polyreactivity
14 | QVQLVESGGGLVQAGGSLRLSCAASGSIFPPNAMGWSRQAPGKERELVAAISFSGGTSTYYADSVKGRFTISRDNAKNTVYLQMNSLKPEDTAVYYCAARKTTRRYHYDYWGQGTQVTVSS | high polyreactivity
15 | QVQLVESGGGLVQAGGSLRLSCAASGSIFPPNAMGWYRQAPGKEREFVATITGRGGRTYYADSVKGRFTISRDNAKNTVYLQMNSLKPEDTAVYYCAARYTTSSRAKIEYDYWGQGTQVTVSS | high polyreactivity
16 | QVQLVESGGGLVQAGGSLRLSCAASGSIFPRNAMGWYRQAPGKERELVASINSGGSTKYADSVKGRFTISRDNAKNTLYLQMNSLKPEDTAVYYCAAVRPWWRNKPQWPRYDYCGQGTQVTVSS | low polyreactivity
17 | QVQLVESGGGLVQAGGSLRLSCAASGSIFPRNVMGWYRQEPGKERQLVAVITARGGSTYYADSVKGRFTISRDNAKNTVYLQMNSLKPEDTAVYYCATPYSRRKIPPNYDYWGLGTQVTVSS | high polyreactivity
18 | QVQLVESGGGLVQAGGSLRLSCAASGSIFPRYAMGWYRQAPGKERELVAAITSGGSTNYADSVKGRFTISRDNAKNTVYLQMNSLKPDDTAVYYCATVRSLKEGASYFYWGQGTQVTVSS | high polyreactivity
19 | QVQLVESGGGLVQAGGSLRLSCAASGSIFPSNTMGWYRQAPGKERELVATIRWNTGSTYYADSVKGRFTISRDNAKNTVYLQMNSLKPEDTAVYYCAALYVWLWGYRFDYWGQGTQVTVSS | high polyreactivity
20 | QVQLVESGGGLVQAGGSLRLSCAASGSIFPSYAMGWYRLAPGKERELVATISSDGGTNYADSVKGRFTISRDNAKNTVYLQMYSLKPEDTAVYYCATRTTYGQSGSAGPRPYNYWGQGTQVTVSS | low polyreactivity
21 | QVQLVESGGGLVQAGGSLRLSCAASGSIFPSYAMGWYRQAPGKERELVAAISVSGGSTYYADSVKGRFTISRDNAKNTVYLQMNSLKPEDTAVYYCAAQHGYPRYYYWGQGTQVTVSS | high polyreactivity
22 | QVQLVESGGGLVQAGGSLRLSCAASGSIFPSYAMGWYRQAPGKERELVATISGSGTRTYYADSVKGRFTISRDNAKYTFYLQMNSLKPEDTAVYYCAAETHVESGSRDFYTEDYWGQGTQVTVSS | low polyreactivity

Row | Sequence | polyreactivity (PSR sort gate)
23 | QVQLVESGGGLVQAGGSLRLSCAASGSIFPSYAMGWYRQAPGKERELVAVINSGGSTYYADSVKGRFTISRDNAKNTVYFQMNSLKPEDTAVYYCAAYRRRYPRFDYWGQGTQVTVSS | high polyreactivity
24 | QVQLVESGGGLVQAGGSLRLSCAASGSIFPSYAMGWYRQAPRKERELVATIGRGGTTNYADSVKGRFTISRDNAKNTVYLQMNSLKPEDTAVYSCNAERIWRYKDGYDYWGQGTQVTVSS | high polyreactivity
25 | QVQLVESGGGLVQAGGSLRLSCAASGSIFPTYAMGWYRQAPGKERELVAAISWDGDITYYADSVKGRFTISRDHAKNTVYLQMNSLKPEDTAVYYCNASLFIEIYSFQYDDHFAEYGYWGQGTQVTVSS | high polyreactivity
26 | QVQLVESGGGLVQAGGSLRLSCAASGSIFPTYAMGWYRQAPGKERELVAAITGSGGSTYYADSVKGRFTISRDNAKNTVYLQMNSLKPEDTAVYYCAKDVYWYGVWYDYWGQGTQLTVSS | high polyreactivity
27 | QVQLVESGGGLVQAGGSLRLSCAASGSIFPVNAMGWSRQAPGKERELVATITWRGGRTYYADSVKGRFTISRDNAKNTVYLQMNSLKPEDTAVYYCAARLLYRHFGYWGQGTQVTVSS | high polyreactivity
28 | QVQLVESGGGLVQAGGSLRLSCAASGSIFPVYAMGWYRQAPGKERELVAAINSSGGTTYYADSVKGRFTISRDNAKNTVYLQMNSLKPEDTAVYYCAAEISTASYFAKTYDYWGQGTQVTVSS | low polyreactivity
29 | QVQLVESGGGLVQAGGSLRLSCAASGSIFPVYAMGWYRQAPGKERELVAAISWGGGNTYYADSVKGRFTISRDNSKNTVYLQMNSLKPEDTAVYYCNKRSRLGRGNRDYRGQGTQVTVSS | high polyreactivity
30 | QVQLVESGGGLVQAGGSLRLSCAASGSIFPWYAMGWYRPAPGKERELVADITNGSSTNYADSVKGRFTISRDNAKNTVYLQMNSLKPEDTAVYYCARDGIGADGYDYWGQGTQVTVSS | low polyreactivity
31 | QVQLVESGGGLVQAGGSLRLSCAASGSIFPWYAMGWYRQEPGKERELVAAISKSGAGTYYADSVKGRFTISRDTAKNTVYLQMNSLKPEDTAVYYCNARWRSNRAARYDFWGQGTQVTVSS | high polyreactivity
32 | QVQLVESGGGLVQAGGSLRLSCAASGSIFPWYTMGWYRQAPGKERELVAAITSSGGGTYYADSVKGRFTISRDNAKNTVYLQMNSLKPEDTAVYYCAAGLDWGPEYEYWGQGTQVTVSS | low polyreactivity
33 | QVQLVESGGGLVQAGGSLRLSCAASGSIFPYAMGWYRQAPGKERELVAVISWSGASTYYADSVKGRFTISRDNAKNTVYLQMNSLKPEDTAVYYCAVYRYYKLVHLYGYDYWGQGTQVTVSS | high polyreactivity
34 | QVQLVESGGGLVQAGGSLRLSCAASGSIFPYNAMGCYRQAPGKEMELVAVITSSGASTYYADSVKGRFTISLDNSKNTVYLQMNSLKPEDTAVYYCAARGYNYYFGGYDYWGQGTQVTVSS | low polyreactivity
35 | QVQLVESGGGLVQAGGSLRLSCAASGSIFPYYALGWYRQAPGKERELVAAISWSGTSTYYADSVKGRFTISRDNAKNTVYLQMNSLKPEDTAVYYCNAGYYHFYASGYDYWGQGTQVTVSS | low polyreactivity
36 | QVQLVESGGGLVQAGGSLRLSCAASGSIFPYYAMGWYRQAPGKERELVATISNSGGSTYYADSVKGRFTISRDNAKNTVYLQMNSLKPEDTAVYYCAADRGSYPYTGDYWGQGTQVNVSS | low polyreactivity
37 | QVQLVESGGGLVQAGGSLRLSCAASGSIFPYYAMGWYRQAPGKERELVATITYRGGSTNYADSVKGRFTISRDNAKNTVYLQMNSLKPEDTAVYYCAAYGYVLASPYPYSFVKLGYWGQGTQVTVSS | low polyreactivity
38 | QVQLVESGGGLVQAGGSLRLSCAASGSIFQAYAMGWYRQAPGKERELVASISQSGDSTYYADSVKGRFTISRDNAKNTVYLQMNSLNPVDTAVYYCAAVQYGHRRGRVSVRRRLDYWGQGTQVTVSS | low polyreactivity
39 | QVQLVESGGGLVQAGGSLRLSCAASGSIFQCYTMGWSRQAPGKERELVAAISSTGSTNYADCVMGRFTISLDNAKNTVYLQMNSMNPEDTAVFYCAGVGTYLAGYQFDYWGQGTQVTVSS | low polyreactivity
40 | QVQLVESGGGLVQAGGSLRLSCAASGSIFQDNTMGWYRQAPGKERELVAAISWSATSTYYADSVTGRFSISRDNAKNTVYLQMNRLKPEDTAVYDCAAGRSYRRYAYYYWGQGTQVTVSS | high polyreactivity
41 | QVQLVESGGGLVQAGGSLRLSCAASGSIFQFYAMGWYRQAPGKERELVADISYGGSTYYADSVKGRFTISRDNAKKTVYLQMNSLKPEDTAVYYCAAAAYWWVKGFGSYYWGQGTQVTVSS | high polyreactivity
42 | QVQLVESGGGLVQAGGSLRLSCAASGSIFQFYAMGWYRQAPGKERELVAVITTSGVSTYYADSVKGRFTISRDNAKNTVYLQMNSLKPEATAVYYCAADDYYLAGDYWGQGTQVTVSS | low polyreactivity
43 | QVQLVESGGGLVQAGGSLRLSCAASGSIFQLNAKGWYRQAPGKERELVAAITWSGDSTYYADSVKGRFTISRDNAKNTVYLQMNSLKPEDTAVYYCAADVLTTPPPREFEYWGQGTQVTVSS | high polyreactivity
